B1: human B7-H3 VC (expressed on CHO.HLA-DR2 transfectants) (ligand)
chain: LEVQVPEDPVVALVGTDATLCCSFSPEPGFSLAQLNLIWQLTDTKQLVHSFAEGQDQGSAYANRTALFPDLLAQGNASLRLQRVRVADEGSFTCFVSIRDFGSAAVSLQVAAPYSKPSMTLEPNKDLRPGDTVTITCSSYRGYPEAEVFWQDGQGVPLTGNVTTSQMANEQGLFDVHSVLRVVLGANGTYSCLVRNPVLQQDAHGSVTITGQPMTFPPEALWVTVGLSVCLIALLVALAFVCWRKIKQSCEEENAGAEDQDGEGEGSKTALQPLKHSDSKEDDGQEIA
B2: human B7-H3 VCVC (expressed on CHO.HLA-DR2 transfectants) (ligand)
chain: LEVQVPEDPVVALVGTDATLCCSFSPEPGFSLAQLNLIWQLTDTKQLVHSFAEGQDQGSAYANRTALFPDLLAQGNASLRLQRVRVADEGSFTCFVSIRDFGSAAVSLQVAAPYSKPSMTLEPNKDLRPGDTVTITCSSYQGYPEAEVFWQDGQGVPLTGNVTTSQMANEQGLFDVHSILRVVLGANGTYSCLVRNPVLQQDAHSSVTITPQRSPTGAVEVQVPEDPVVALVGTDATLRCSFSPEPGFSLAQLNLIWQLTDTKQLVHSFTEGRDQGSAYANRTALFPDLLAQGNASLRLQRVRVADEGSFTCFVSIRDFGSAAVSLQVAAPYSKPSMTLEPNKDLRPGDTVTITCSSYRGYPEAEVFWQDGQGVPLTGNVTTSQMANEQGLFDVHSVLRVVLGANGTYSCLVRNPVLQQDAHGSVTITGQPMTFPPEALWVTVGLSVCLIALLVALAFVCWRKIKQSCEEENAGAEDQDGEGEGSKTALQPLKHSDSKEDDGQEIA

Target: B7-H3 receptor on human CD4+ T cells (human)
Experiment: cell-based or functional assay

| Binder | GM-CSF level reduced relative to GFP controls (multiplex ELISA, 72 h) | IFN-γ level reduced relative to GFP controls (multiplex ELISA, 72 h) | IL-10 level reduced relative to GFP controls (multiplex ELISA, 72 h) | TNF-α level reduced relative to GFP controls (multiplex ELISA, 72 h) |
| --- | --- | --- | --- | --- |
| B1 | 65% | 85% | 81% | 69% |
| B2 | 65% | 85% | 81% | 69% |
